Laboratory results published in publication PMC8329713, “The identification and structural analysis of potential 14-3-3 interaction sites on the bone regulator protein Schnurri-3” (Acta Crystallographica. Section F, Structural Biology …, 2021).
Non-standard residues stand in square brackets, D forms with d. No end group written: not given here. *: point of attachment. FITC = O=C1OC2(c3ccc(O)cc3Oc3cc(O)ccc32)c2ccc(NC(=S)*)cc21; pS = N[C@@H](COP(=O)(O)O)C(=O)O; Ahx = NCCCCCC(=O)O

Key:
14-3-3σ (full length) = biological target: T1, 14-3-3σ (full length) (human, UniProt P31947 1-248); assay: fluorescence polarisation; 14-3-3 isoforms (full length) serially diluted twofold in the presence of 10 nM FITC-labelled peptide; 50 mM Tris pH 7.5, 150 mM NaCl, 5 mM MgCl2, 0.05% Tween-20 (no reducing agent listed); one-site specific binding model; conditions: both partners purified
T1 construct: 14-3-3 protein sigma, human, full length; Expressed from a pPRoeX-Htb vector; also called 14-3-3 isoform σ; the σ isoform; source: E. coli NiCo21(DE3), purified (nickel column, TEV cleavage, second nickel column, SEC)
T1 sequence (looked up): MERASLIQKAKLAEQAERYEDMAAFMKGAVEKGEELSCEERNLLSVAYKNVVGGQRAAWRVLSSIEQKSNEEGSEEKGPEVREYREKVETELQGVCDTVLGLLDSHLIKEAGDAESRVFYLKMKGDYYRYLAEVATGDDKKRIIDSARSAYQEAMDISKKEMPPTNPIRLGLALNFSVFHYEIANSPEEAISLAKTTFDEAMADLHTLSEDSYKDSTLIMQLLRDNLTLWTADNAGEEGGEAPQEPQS

14-3-3η (full length) = biological target: T2, 14-3-3η (full length) (human, UniProt Q04917 1-246); assay: as above; conditions: both partners purified
T2 construct: 14-3-3 protein eta, human, full length; Expressed from a pPRoeX-Htb vector; also called 14-3-3 isoform η; source: E. coli NiCo21(DE3), purified (nickel column, TEV cleavage, second nickel column, SEC)
T2 sequence (looked up): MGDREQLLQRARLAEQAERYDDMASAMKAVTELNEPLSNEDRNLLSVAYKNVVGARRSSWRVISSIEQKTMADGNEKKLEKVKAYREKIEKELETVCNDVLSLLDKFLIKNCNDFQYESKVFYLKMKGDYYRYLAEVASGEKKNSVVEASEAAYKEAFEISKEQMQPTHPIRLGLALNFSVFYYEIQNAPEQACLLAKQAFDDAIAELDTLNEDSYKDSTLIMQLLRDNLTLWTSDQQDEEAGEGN

14-3-3β (full length) [1] = biological target: T3, 14-3-3β (full length) (human, UniProt P31946 1-246); assay: as above; conditions: both partners purified
T3 construct: 14-3-3 protein beta/alpha, human, full length; Expressed from a pPRoeX-Htb vector; also called 14-3-3 isoform β; source: E. coli NiCo21(DE3), purified (nickel column, TEV cleavage, second nickel column, SEC)
T3 sequence (looked up): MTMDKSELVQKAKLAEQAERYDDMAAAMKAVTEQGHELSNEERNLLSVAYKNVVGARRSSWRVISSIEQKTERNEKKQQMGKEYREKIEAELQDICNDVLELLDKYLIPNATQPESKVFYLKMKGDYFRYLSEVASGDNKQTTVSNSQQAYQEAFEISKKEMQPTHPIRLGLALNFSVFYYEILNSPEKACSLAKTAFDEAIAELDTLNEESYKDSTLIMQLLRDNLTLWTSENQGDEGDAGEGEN

14-3-3γ (full length) = biological target: T4, 14-3-3γ (full length) (human, UniProt P61981 1-247); assay: as above; conditions: both partners purified
T4 construct: 14-3-3 protein gamma, human, full length; Expressed from a pPRoeX-Htb vector; also called 14-3-3 isoform γ; source: E. coli NiCo21(DE3), purified (nickel column, TEV cleavage, second nickel column, SEC)
T4 sequence (looked up): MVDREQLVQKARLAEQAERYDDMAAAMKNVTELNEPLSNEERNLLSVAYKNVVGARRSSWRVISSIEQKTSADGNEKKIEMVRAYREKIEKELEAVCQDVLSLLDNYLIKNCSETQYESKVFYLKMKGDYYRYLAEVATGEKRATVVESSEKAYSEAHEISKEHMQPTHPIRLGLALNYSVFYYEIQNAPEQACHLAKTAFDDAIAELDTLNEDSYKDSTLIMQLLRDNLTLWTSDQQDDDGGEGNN

14-3-3ζ (full length) = biological target: T5, 14-3-3ζ (full length) (human, UniProt P63104 1-245); assay: FP
T5 chain: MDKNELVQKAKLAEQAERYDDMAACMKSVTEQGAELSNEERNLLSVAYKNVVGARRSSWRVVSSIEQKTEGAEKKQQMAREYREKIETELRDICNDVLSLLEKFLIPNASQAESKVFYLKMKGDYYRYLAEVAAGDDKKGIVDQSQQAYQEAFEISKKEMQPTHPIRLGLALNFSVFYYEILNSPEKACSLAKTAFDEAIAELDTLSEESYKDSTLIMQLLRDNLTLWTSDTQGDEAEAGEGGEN

14-3-3β (full length) [2] = biological target: T6, 14-3-3β (full length) (human, UniProt P31946 1-246); assay: FP
T6 chain: T3 sequence (looked up)

14-3-3τ (full length) = biological target: T7, 14-3-3τ (full length) (human, UniProt P27348 1-245); assay: FP
T7 chain: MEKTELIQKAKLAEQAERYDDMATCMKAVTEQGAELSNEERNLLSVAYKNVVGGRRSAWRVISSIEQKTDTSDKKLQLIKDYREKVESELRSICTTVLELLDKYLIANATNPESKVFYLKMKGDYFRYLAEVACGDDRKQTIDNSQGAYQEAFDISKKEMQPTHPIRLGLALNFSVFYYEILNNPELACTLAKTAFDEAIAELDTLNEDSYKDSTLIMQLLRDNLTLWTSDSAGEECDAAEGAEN

14-3-3ɛ (full length) = biological target: T8, 14-3-3ɛ (full length) (human, UniProt P62258 1-255); assay: FP
T8 chain: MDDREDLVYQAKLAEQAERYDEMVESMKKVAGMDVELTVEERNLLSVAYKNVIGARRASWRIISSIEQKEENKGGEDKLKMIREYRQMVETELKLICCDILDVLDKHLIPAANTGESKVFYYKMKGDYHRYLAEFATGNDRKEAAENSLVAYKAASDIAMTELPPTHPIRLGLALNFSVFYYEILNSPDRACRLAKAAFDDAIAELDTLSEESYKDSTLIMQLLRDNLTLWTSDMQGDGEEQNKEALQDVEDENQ

Kd (14-3-3σ (full length)): 26 ± 2 nM
Kd (14-3-3η (full length)): 690 ± 60 nM
binding result (14-3-3β (full length) [1]): binds
Kd (14-3-3γ (full length)): 780 ± 50 nM
Kd (14-3-3ζ (full length)): 2140 nM
Kd (14-3-3β (full length) [2]): 1380 nM
Kd (14-3-3τ (full length)): 1910 nM
Kd (14-3-3ɛ (full length)): 2510 nM
B1: SHN3pS542 peptide, N-terminally FITC-Ahx-labelled (peptide)
peptide: {FITC-Ahx}-LLRSH[pS]MPSAAC
modifications: also: phosphoserine at 542, position not mapped
notes: Schnurri-3 (SHN3, transcription factor HIVEP3), human, 12-mer around phosphorylated Ser542; also called SHN3pS542-FITC; the FITC-labelled form; source: synthetic peptide, bought: GenScript (purity >95%)
